Assay results taken from US20210145976A1 (ARO BIOTHERAPEUTICS, published 2021).
Numbering of substitutions follows the chain as printed.

B1: SEQ ID NO 85 (designed binder)
chain: MLPAPKNLVVSRVTEDSARLSWTAPDAAFDSFFIWYWEKSVDGEAIVLTVPGSERSYDLTGLKPGTEYNVGIQGVKGGTPSDPLSAIFTT
notes: FN3 domain
B2: SEQ ID NO 112 (designed binder)
chain: B1 chain with W35A, W37F, K39F, S40A, V41N, D42P, N69K, G71V, D82E, F88S
notes: FN3 domain
B3: SEQ ID NO 278 (designed binder)
chain: MLPAPKNLVVSRVTEDSARLSWTAPDAAFDSFPIAYAEPRPDGEAIVLTVPGSERSYDLTGLKPGTEYSVLIHGVKGGHLSDPLSAIFTT
notes: FN3 domain
B4: SEQ ID NO 296 (designed binder)
chain: B1 chain with W35G, W37L, K39P, S40Q, V41P, D42P, V47I, G71T, T79F, D82M
notes: FN3 domain
B5: SEQ ID NO 284 (designed binder)
chain: B1 chain with W35G, W37L, K39P, S40Q, V41P, D42P, G71T, T79F, D82M
B6: SEQ ID NO 197 (designed binder)
chain: MLPAPKNLVVSRVTEDSARLSWTAPDAAFDSFKIDYLEINDNGEAIVLTVPGSERSYDLTGLKPGTEYPVYIWGVKGGYPSSPLSAIFTT
notes: FN3 domain
B7: SEQ ID NO 212 (designed binder)
chain: MLPAPKNLVVSRVTEDSARLSWTAPDAAFDSFIIEYWEQIGVGEAIVLTVPGSERSYDLTGLKPGTEYWVGIYGVKGGLLSSPLSAIFTT
notes: FN3 domain
B8: SEQ ID NO 174 (designed binder)
chain: B1 chain with W35G, W37L, K39P, S40Q, V41P, D42P, N69K, G71V, D82E
notes: FN3 domain
B9: SEQ ID NO 96 (designed binder)
chain: B1 chain with W35G, W37L, K39P, S40Q, V41P, D42P, G71T, T79F, D82M
B10: SEQ ID NO 233 (designed binder)
chain: B3 chain with P33Y, A35V, R40I, D42N, H79R, L80N
notes: FN3 domain
B11: SEQ ID NO 152 (designed binder)
chain: B1 chain with W35G, W37L, K39P, S40Q, V41P, D42P, G71T, T79F, D82S
notes: FN3 domain
B12: SEQ ID NO 149 (designed binder)
chain: B3 chain with P33I, A35P, P39V, H79K, D82E
notes: FN3 domain
B13: SEQ ID NO 214 (designed binder)
chain: MLPAPKNLVVSRVTEDSARLSWTAPDAAFDSFAIPYGERQELGEAIVLTVPGSERSYDLTGLKPGTEYFVVIQGVKGGQPSYPLSAIFTT
notes: FN3 domain
B14: SEQ ID NO 307 (designed binder)
chain: MLPAPKNLVVSRVTEDSARLSWTAPDAAFDSFPITYSEPAHYGEAIVLTVPGSERSYDLTGLKPGTEYHVGIMGVKGGVFSSPLSAIFTT
notes: FN3 domain
B15: SEQ ID NO 168 (designed binder)
chain: B1 chain with A24T, W35G, W37L, K39P, S40Y, V41P, D42P, N69V, G71S, T79K
notes: FN3 domain
B16: SEQ ID NO 237 (designed binder)
chain: MLPAPKNLVVSRVTEDSARLSWTAPDAAFDSFTILYGEMGTTGEAIVLTVPGSERSYDLTGLKPGTEYDVFIEGVKGGELSWPLSAIFTT
notes: FN3 domain
B17: SEQ ID NO 303 (designed binder)
chain: B1 chain with W35A, W37F, K39F, S40A, V41N, D42P, N69K, G71V, D82E
notes: FN3 domain
B18: SEQ ID NO 257 (designed binder)
chain: B3 chain with P33H, A35V, A37H, D42S, S69E, L71G, H73V, G74S, H79D, D82V
notes: FN3 domain
B19: SEQ ID NO 164 (designed binder)
chain: B3 chain with P33L, A35P, P39T, R40S, D42S
notes: FN3 domain
B20: SEQ ID NO 136 (designed binder)
chain: MLPAPKNLVVSRVTEDSARLSWTAPDAAFDSFFIYYIESYPAGEAIVLTVPGSERSYDLTGLKPGTEYWMGIDGVKGGRWSTPLSAIFTT
notes: FN3 domain
B21: SEQ ID NO 146 (designed binder)
chain: B3 chain with P33Y, H79L, D82S
notes: FN3 domain
B22: SEQ ID NO 222 (designed binder)
chain: B7 chain with I33Y, W37F, Q39W, I40T, V42S, W69N, G71A, L79A, L80V, S82Y
notes: FN3 domain
B23: SEQ ID NO 217 (designed binder)
chain: B7 chain with Q39W, I40Y, G41F, V42A, W69T, G71W, Y73T, L79T, L80W, S82E
notes: FN3 domain
B24: SEQ ID NO 309 (designed binder)
chain: B6 chain with K33I, I39L, N40D, D41Q, N42E, P69A, W73F, S82T
notes: FN3 domain
B25: SEQ ID NO 115 (designed binder)
chain: MLPAPKNLVVSRVTEDSARLSWTAPDAAFDSFFIGYLEPQPPGEAIVLTVPGSERSYDLTGLKPGTEYNVTIQGVKGGFPSMPLSAIFTTT
notes: FN3 domain
B26: SEQ ID NO 261 (designed binder)
chain: B16 chain with L35V, M39W, T41V, T42P, F71W, E79D, F88V
notes: FN3 domain
B27: SEQ ID NO 95 (designed binder)
chain: MLPAPKNLVVSRVTEDSARLSWTAPDAAFDSFRISYYEWYDLGEAIVLTVPGSERSYDLTGLKPGTEYWVDIAGVKGGYYSYPLSAIFTT
notes: FN3 domain
B28: SEQ ID NO 83 (designed binder)
chain: B27 chain with R33Y, S35Y, W39S, Y40S, D41G, L42T, W69F, A73G, Y79S, Y82L
notes: FN3 domain

How the values were obtained:
[1] = molecular target: T1, recombinant biotinylated CD71 extracellular domain (Sino Biologics) with an N-terminal 6His tag (human, UniProt P02786 89-760, biotinylated (sites not given)); experiment: screening ELISA, ratio
T1 construct: extracellular domain; also called hCD71; huCD71

CD71 on SK-BR-3 cells = CD71 on SK-BR-3 cells (human, UniProt P02786 1-760); experiment: cell-based or functional assay
[2] = molecular target: T1, recombinant biotinylated CD71 …; experiment: screening ELISA

T1 sequence (P02786 other isoform, or with tags, fused parts or gaps): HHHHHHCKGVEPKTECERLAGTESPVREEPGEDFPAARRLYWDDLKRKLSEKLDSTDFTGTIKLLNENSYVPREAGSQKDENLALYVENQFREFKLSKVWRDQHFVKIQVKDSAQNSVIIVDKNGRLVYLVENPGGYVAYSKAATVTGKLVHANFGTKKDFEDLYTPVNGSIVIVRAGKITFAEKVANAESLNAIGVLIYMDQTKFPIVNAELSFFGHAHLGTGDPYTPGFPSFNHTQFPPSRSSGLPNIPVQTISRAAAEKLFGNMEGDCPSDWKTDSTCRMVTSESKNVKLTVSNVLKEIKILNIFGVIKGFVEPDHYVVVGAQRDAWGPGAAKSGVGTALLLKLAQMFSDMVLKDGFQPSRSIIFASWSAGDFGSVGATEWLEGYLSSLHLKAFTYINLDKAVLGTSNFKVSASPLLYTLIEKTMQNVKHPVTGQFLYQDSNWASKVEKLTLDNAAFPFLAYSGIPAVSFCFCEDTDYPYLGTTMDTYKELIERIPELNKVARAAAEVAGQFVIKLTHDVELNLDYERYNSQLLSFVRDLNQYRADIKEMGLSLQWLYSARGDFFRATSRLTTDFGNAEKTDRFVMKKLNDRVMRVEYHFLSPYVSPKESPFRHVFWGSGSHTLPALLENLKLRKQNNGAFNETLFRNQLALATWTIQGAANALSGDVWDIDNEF
Sequence of CD71 on SK-BR-3 cells (P02786 whole entry): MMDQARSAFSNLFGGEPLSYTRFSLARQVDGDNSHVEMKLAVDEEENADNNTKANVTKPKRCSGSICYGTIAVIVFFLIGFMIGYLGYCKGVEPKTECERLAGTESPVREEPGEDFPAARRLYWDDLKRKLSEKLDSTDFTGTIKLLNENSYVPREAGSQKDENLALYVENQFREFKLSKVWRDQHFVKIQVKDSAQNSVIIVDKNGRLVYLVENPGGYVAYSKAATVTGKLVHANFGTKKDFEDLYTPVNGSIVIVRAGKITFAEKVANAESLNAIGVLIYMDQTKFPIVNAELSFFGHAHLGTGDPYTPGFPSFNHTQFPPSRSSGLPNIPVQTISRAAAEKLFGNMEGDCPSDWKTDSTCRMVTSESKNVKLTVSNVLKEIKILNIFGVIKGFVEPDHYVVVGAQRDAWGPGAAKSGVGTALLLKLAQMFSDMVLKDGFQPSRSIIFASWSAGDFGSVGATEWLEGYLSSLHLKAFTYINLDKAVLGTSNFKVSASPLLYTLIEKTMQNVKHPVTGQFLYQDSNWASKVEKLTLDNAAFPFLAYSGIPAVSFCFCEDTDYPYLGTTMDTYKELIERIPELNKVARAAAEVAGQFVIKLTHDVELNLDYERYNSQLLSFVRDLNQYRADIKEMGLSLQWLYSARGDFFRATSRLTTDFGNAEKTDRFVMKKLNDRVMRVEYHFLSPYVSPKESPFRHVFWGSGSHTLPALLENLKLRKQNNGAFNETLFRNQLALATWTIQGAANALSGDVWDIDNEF

| Binder | hCD71:HSA [1] | IC50, SKBR-3 viability, MMAF conjugate, second unlabelled column (+/- human transferrin) (CD71 on SK-BR-3 cells) [µM] | hCD71 [2] | IC50, SKBR-3 viability, MMAF conjugate, first unlabelled column (+/- human transferrin) (CD71 on SK-BR-3 cells) [µM] |
| --- | --- | --- | --- | --- |
| B1 | 1160 | 0.089 | 2.91e+06 |  |
| B2 | 514 | 0.00455 | 3.65e+06 | 0.0273 |
| B3 | 568 | 0.0037 | 3.69e+06 | 0.0132 |
| B4 | 844 | 0.0186 | 2.7e+06 | 0.0293 |
| B5 |  | 0.032 |  | 0.098 |
| B6 | 242 | 0.000468 | 4.57e+06 |  |
| B7 | 1110 | 0.00669 | 2.49e+06 |  |
| B8 | 1100 | 0.158 | 2.42e+06 |  |
| B9 |  | 0.027 |  | 0.0795 |
| B10 | 1310 | 0.0177 | 3.41e+06 | 0.0546 |
| B11 | 534 | 0.00524 | 2.83e+06 | 0.0196 |
| B12 | 826 | 0.0055 | 2.77e+06 | 0.0097 |
| B13 | 974 | 0.0292 | 2.14e+06 | 0.0281 |
| B14 | 503 | 0.0307 | 2.19e+06 | 0.0479 |
| B15 | 1480 | 0.0072 | 2.9e+06 | 0.032 |
| B16 | 2240 | 0.00376 | 4.15e+06 | 0.0281 |
| B17 | 1330 | 0.039 | 3.51e+06 | 0.033 |
| B18 | 601 | 0.0065 | 2.37e+06 | 0.022 |
| B19 | 2370 | 0.0558 | 2.6e+06 | 0.0187 |
| B20 | 706 | 0.000503 | 4.03e+06 | 0.00232 |
| B21 | 809 | 0.00346 | 3.07e+06 | 0.00713 |
| B22 | 441 | 0.0282 | 1.74e+06 |  |
| B23 | 332 | 0.00246 | 3.9e+06 | 0.0158 |
| B24 | 1100 |  | 3.14e+06 |  |
| B25 | 846 | 0.0104 | 2.92e+06 | 0.0242 |
| B26 | 763 | 0.0312 | 4.23e+06 | 0.00124 |
| B27 | 2210 | 0.0127 | 4.21e+06 | 0.0283 |
| B28 | 1480 |  | 1.93e+06 |  |
